{"source": "the DeepSol protein solubility set", "data": [{"assay": "soluble on expression in E. coli; label from the status in PepcDB or PDB records", "values": [{"sequence": "MAHHHHHHMCNGKFAFLFSDFGNHVIEESYYKVNEGQRKGETGANKAAMQIQYCKLSHFLKVPFENFDKKTNKIIYPMFALILFEQNKQLNKNDKSIDEQEFHTFCDQFSLSKWKESLVEISKTYRVGFSPTCSIMGGVTSQEIRKFVSKQHESIPNFCVFDMNQNVVCTSMIS", "soluble on expression in E. coli": "not soluble"}, {"sequence": "MAHHHHHHMDHRRSGLVLSLRYRCDGPVGTVETRRLTHVGTRSRARSAELARVRRALLVLLLPQRMKGLGQRLGDIRPREREGPGCRAQPWRASVVPRPARASLPPPKASGCFYAVHHHDKSSRLSVTATTAHDSSMRAPPSSVLRWTFTCVSSPRSTTAAAQTYHRPLHHPSQGFTTPRGRGRSAIHTHTHTHTHTHTHTHTHTHTHTRLSFNVRGPCEEHPHAPAACCIPLFLCCDAPAVSAAAAMSLQVNLLNNTFANPFMNAAGVMCTTTEELVAMTESASGSLVSKSCTPALREGNPTPRYQALPLGSINSMGLPNNGFDFYLAYAAEQHDYGKKPLFLSMSGLSMRENVEMCKRLAAVATEKGVILELNLSCPNVPGKPQVAYDFDAMRQCLTAVSEVYPHSFGVKMPPYFDFAHFDAAAEILNEFPKVQFITCINSIGNGLVIDAETESVVIKPKQGFGGLGGRYVLPTALANINAFYRRCPGKLIFGCGGVYTGEDAFLHVLAGASMVQVGTALQEEGPSIFERLTSELLGVMAKKRYQTLDEFRGKVRTLDGTAESTR", "soluble on expression in E. coli": "not soluble"}, {"sequence": "MAHHHHHHMDIERLAKNATEITHQSLMLKNIQKEQNNYCKQCGYIYNYDDYMYMYMKRFNLSKWRETSNCLSGRNPYGPFSGGMESSQFDNENCIRCIYCGAIIDTIEMYDHWNGKESYIELNSYREKFIFDKNKKSYWKNKITSLEKNVSLFKEDQNQAYNITYEKCTDCGNDFLHFINIQTRSADEGSTIIYFCPNCKKQTTVNN", "soluble on expression in E. coli": "not soluble"}, {"sequence": "MAHHHHHHMDKIKSWLGFNKKIVFTENKFLLRNVNDQESLQAENVRAEDYPIPEKYLEDPDKIPKYYVFQSNMVTDEDLQPGMLRQLEVDKRLTLPTRTHISFLVTATDVIHSWSIPSLGIKADAIPGRLHKITTFILREGVYYGQCSEMCGTLHGFMPIVVEAVSPEAYAAHAKKYYKE", "soluble on expression in E. coli": "not soluble"}, {"sequence": "MAHHHHHHMDNLFYYMIIQNDRIQPIIVRQPQTVIIHSQPKLPITLDLPPQNIILKNEDPQPIIVRQSNPNIIIEKSQNDFYNHPNFHIGLHDKVNSMSDINNTNIKEQPIKDNMIEDMQNINNADTQFYYNNQNVINENNVLPTHYSYLNNGVFNKEHNYDPYNFTLYSNK", "soluble on expression in E. coli": "not soluble"}, {"sequence": "MAHHHHHHMDPPAAFERRYPELGALRLHFDVLDSTQLYCKRNMARLLQNGSLQDDKHMVVVTCNEQTNGIGTRDTKKKQDRMWLSERGNLFTTFVLLWKREDLEKVKYLSQTSTVAVSKTLEHFHLVTQIKWVNDVLVNEKKIAGCLVHLHYLDDFPSLSRYACVMVGIGINITLRDKDNLLGDNYTSVQKELQRDFGSFCSIPSVEDVMDKLILNLHAVFTKLREEGFSSFLDYITPRLLYKDRNVLVDTDGELIAGHLQGLLHDGSLLLLRGENELVRVNTGHLRLG", "soluble on expression in E. coli": "soluble"}, {"sequence": "MAHHHHHHMDRQVINLEEILPFSYTRDVELVPMYCFEVKKEVAKDALNIMKDYINNQLYDKYNHLKRCRKCTDSVQILIGACNHIPFELSQKLIEKMKQENNNDEFNDIIITKIMVSKYAPITRKQYIEWSTYWPLYFRKPDKDILILTKEEINKYIKLLYISIDIGKQFGTCNSGCIITYNDEIIASSGDNIKNHPLHHAPMLAIEQVSYKLRHIWLNKQTEKNNLQKKMKIIHKQQINNRDSLNDHKHENNKSNHNILIDHIPNDQYLCTNFFAFLSHEPCYMCAMALLHSRIKCVIFDKENKNNGALSSQEKLHCIKNLNHHFKVFKTIRG", "soluble on expression in E. coli": "not soluble"}, {"sequence": "MAHHHHHHMEAPAVYCVSDAAASLTMADDWIRGLSRQRHRSMCEVDAVFPVSRTRERTEMDEAETASSYSDSVTSVPTNRLQLHMMHRRRLYKQYAMDLSMWADTHSYYQLMMWCHDHHVFVHPTVEMVRHRSAFREHVFEVKEDVDAFTPLLAIPEDLIIGFKDANTESSDPSASTDDRNNLYDAKREAEFHKLNTGENSNADICQFFFASLGMIVSDLITAKSSPLTDPRHLFAELLSKVPTLQNAPYFDEEVVFDSNETCLADVLLQMIRNYINGGPLVNKVPLHELRWAVSVSLSHSTPLSIGAVRSIGIVPVVHLFPHGGTATNAYVVARTSRDKSAEKMAIFFREKFGYDFQGQANAKWIYVVPERPLKAGEAINLQVMAPVCEKDSEAEQMWRLSCGTVPESYMSSAQASARQEAATRFIVEQGEALWKASRAKRLL", "soluble on expression in E. coli": "not soluble"}, {"sequence": "MAHHHHHHMEGEEVPLVQPFRQHREQCRVKLQEIGPRMTLQLSKVENGFAGGEVIYHRTEKKTLREVQVNASKVRARKTEKAKRRALQDENVQRKRQKREDKLERKHQRREAAAEAQQANPFEVAHGDGDGDGYAAGDEE", "soluble on expression in E. coli": "not soluble"}, {"sequence": "MAHHHHHHMEKDGYTKLSEEEEQQLDNCRACMALTAVFMEEVMKPTEKLQHQLHQQQQQEGSAPRTPKNSDAVRSGERQRLVTNVHDAIDKLCDRVKERNNQVDASYDKGKEERDEKSESTEGGPIWYVSVNTAACEVALEEVSEALAREAFAQLLPERVAGTRGGGPSAVCEQENLCTARLSQHVKSEEEKAKAELEKEMRRQRELSRKNPKETLALQRAVAVGVGIMVIALWLRGRQSAKPEGDVKKD", "soluble on expression in E. coli": "not soluble"}, {"sequence": "MAHHHHHHMENLYFQGMSSFLPEGGCYELLTVIGKGFEDLMTVNLARYKPTGEYVTVRRINLEACSNEMVTFLQGELHVSKLFNHPNIVPYRATFIADNELWVVTSFMAYGSAKDLICTHFMDGMNELAIAYILQGVLKALDYIHHMGYVHRSVKASHILISVDGKVYLSGLRSNLSMISHGQRQRVVHDFPKYSVKVLPWLSPEVLQQNLQGYDAKSDIYSVGITACELANGHVPFKDMPATQMLLEKLNGTVPCLLDTSTIPAEELTMSPSRSVANSGLSDSLTTSTPRPSNGDSPSHPYHRTFSPHFHHFVEQCLQRNPDARPSASTLLNHSFFKQIKRRASEALPELLRPVTPITNFEGSQSQDHSGIFGLVTNLEELEVDDWEF", "soluble on expression in E. coli": "soluble"}, {"sequence": "MAHHHHHHMERFRSEDVAEGAFTLNLDECGASLIELHAPLNGLAFMMQDAVVAQLAMGSTLAGSDAAKAPQDDHDGTTVNFRTLSTSAAGAIDALLSEMSARRVHFVSGVVTDAMLDVEGVTIIDPLPLEPRLNRFQRNMIRLSLTLEQQFFLLAEYLGNTSGGCAHGVIGSGEAAALAVDVWRVAGFCDALVDHLWWRGRCVCGGPFSWRCRWDCAARGVARRCARACRVLGVFTPAR", "soluble on expression in E. coli": "not soluble"}, {"sequence": "MAHHHHHHMFLRPHEINILMNEMKIIYEFKKEYYEIILNENNADDNVIDLFEKNTNKCNIEIKPYDDINSDLLDFDQFKMFNIDKDDIKKKNEDKKDEDRIKYILDKESYNNSIDKLNDNSCDESCYITDDELCKQINNPFDNTYNNKFVVKYKEYFEENSFIVKKGDIYGADFLLYITEQKYAHSLYAVYIIYKHYILRDLIRILRVSHSIKKKVILILWNELNCFNISDTLVYIKSYKYK", "soluble on expression in E. coli": "soluble"}, {"sequence": "MAHHHHHHMGCSGSKNASNPKDGAASKGGKDGKTTADRKVAWERIRCAIPRDKDAESKSRRIELFKRFDTNGTGKLGFREVLDGCYSVLKLDEFTTHLPDIVQRAFDKAKDLGNKVKGVGEEDLVEFLEFRLMLCYIYDIFELTVMFDTMDKDGSLLIELQEFKEALPKLKEWGVDITDATTVFNEIDTNGSGVVTFDEFSCWAVTKKLQVCGDPDGEGNGANEGDGANAGDGVPAAEGSA", "soluble on expression in E. coli": "soluble"}, {"sequence": "MAHHHHHHMGGHGGLNILPQKKWNVYRKDAQYKVHYDEHKIIKEEKDKEIKRKKDEFESTISTLKKNMTKNEDSDNNYNNFYDENGEKKTTTNYCNDHINLFIDEEKELTAKQKKHEEFLIKKGHYIYYDKNFNTQHNSIYDKNKNAQIISDFNKMKLCERDWFLNKKNKNEKTKDNGANFFHIQKDNISEEHNKTENINSDLSLYCNTNNYITHDKKKEKKQMHYHIKKIIKYKQEKDKEKKRKRQGKEKKKPK", "soluble on expression in E. coli": "not soluble"}, {"sequence": "MAHHHHHHMGLKFYVLVFLILCLKNVVKGDKCETEFSKLYPESNSLTGLIYAHTANVHKLSMWVYFIYNHFSSADELIKYLEKTNINTLENSDHTCFARAVTLYLFYYYLKDIKSMLSTDDYQSFFKNKFKDINPLFINDFILILNDKKFMENLDLYIMKESEREHLVIKKNPFLRVLNKASTTTHATYKSNPYFIVGSRVHTPYKDYLGDFNKYTEISVLNYVRDYNFLIYAGSRENYYNSDIAGPARSVNNVISKNKTLGLRKRSSSLALVGTNNNDPIFAYCEKDNKSEYYGTPDDLITSFFSIIKTKMLNSHKTFLRQFDYALFHKTYSIPNLKGFRFLKHLFQKKNLVNFVGMYENHVSTEINFLAEDFVELFDVTMDCYSRQYSNRAAENFKAIRELNVL", "soluble on expression in E. coli": "not soluble"}, {"sequence": "MAHHHHHHMGNKISTEDHIFRLKLKTKELEKLSQRSELEEKKLIGDVKKAIQAGKIELARLYAEKCIRKKNEKVNYLNLSNKLDVLVSRLEGAHRCASLVKDVGVMIPLIQKINAETNAIKIGNDVTKLENIFDEISISSELINDTVQTSSAISAPTEEVDELISKIADEHALKLDGQIGSVHPINKHLEEISNMSERIKNLK", "soluble on expression in E. coli": "soluble"}, {"sequence": "MAHHHHHHMGTLEAQTQGPGSMFITFEGIDGSGKTTQSHLLAEYLSEIYGVNNVVLTREPGGTLLNESVRNLLFKAQGLDSLSELLFFIAMRREHFVKIIKPSLMQKKIVICDRFIDSTIAYQGYGQGIDCSLIDQLNDLVIDVYPDITFIIDVDINESLSRSCKNGYEFADMEFYYRVRDGFYDIAKKNPHRCHVITDKSETYDIDDINFVHLEVIKVLQMV", "soluble on expression in E. coli": "soluble"}, {"sequence": "MAHHHHHHMGTLEAQTQGPGSMQMNMVETEPVQGCRDFPPETMRLRKYLFDVFHSTARKFGFEEYDSPVLESEELYIRKAGEEITEQMFNFITKGGHRVALRPEMTPSLARQLLAKGRSLLLPAKWYSIPQCWRYEAITRGRRREHYQWNMDIIGVKSVSSEVELVCAACTAMQSLGLSSKDVGVKINSRKILQTVVEQAGVSADKFAPVCVIVDKMEKLPREEVVAQLAAIGLESNVVDAITSTLSLKTIDEIAQRIGEEHEAVRELRDFITQIEAYGFGDWVIFDASVVRGLAYYTGIVFEGFDRDGNFRALCGGGRYDNLLTTYGSPTAVPCVGFGFGDCVIVELLNEKKLLPELHHVVDDLVIPFDETMRPHALSILRRLRDAGRSADIVFDKKKVVQAFNYADRIGALRAVLVAPDEWARGEVRVKMLREGAGREEGANERGIVLPVDKIV", "soluble on expression in E. coli": "soluble"}, {"sequence": "MAHHHHHHMGTLEAQTQGPGSMSEPLLLQDRDERGVVTLTLNRPQAFNALSEAMLAALGEAFGTLAEDESVRAVVLAASGKAFCAGHDLKEMRAEPSREYYEKLFARCTDVMLAIQRLPAPVIARVHGIATAAGCQLVAMCDLAVATRDARFAVSGINVGLFCSTPGVALSRNVGRKAAFEMLVTGEFVSADDAKGLGLVNRVVAPKALDDEIEAMVSKIVAKPRAAVAMGKALFYRQIETDIESAYADAGTTMACNMMDPSALEGVSAFLEKRRPEWHTPQPSTA", "soluble on expression in E. coli": "soluble"}, {"sequence": "MAHHHHHHMGTLEAQTQGPGSMSFSNVPAGKDLPQDFNVIIEIPAQSEPVKYEADKALGLLVVDRFIGTGMRYPVNYGFIPQTLSGDGDPVDVLVITPFPLLAGSVVRARALGMLKMTDESGVDAKLVAVPHDKVCPMTANLKSIDDVPAYLKDQIKHFFEQYKALEKGKWVKVEGWDGIDAAHKEITDGVANFKK", "soluble on expression in E. coli": "soluble"}]}]}
